Reference: article PMC4718629, “Molecular Determinants of GS-9620-Dependent TLR7 Activation” (PLoS ONE, 2016)

Target: the molecule itself
Assay: SEC; purified recombinant full-length TLR7 run against calibration standards (670, 158, 44, 17 and 1.35 kDa); solubilized with Fos-Choline 14

B1: full-length recombinant human TLR7 (residues 27-1049) with N-terminal 6HIS tag (receptor, UniProt Q9NYK1 27-1049, looked up)
chain: ARWFPKTLPCDVTLDVPKNHVIVDCTDKHLTEIPGGIPTNTTNLTLTINHIPDISPASFHRLDHLVEIDFRCNCVPIPLGSKNNMCIKRLQIKPRSFSGLTYLKSLYLDGNQLLEIPQGLPPSLQLLSLEANNIFSIRKENLTELANIEILYLGQNCYYRNPCYVSYSIEKDAFLNLTKLKVLSLKDNNVTAVPTVLPSTLTELYLYNNMIAKIQEDDFNNLNQLQILDLSGNCPRCYNAPFPCAPCKNNSPLQIPVNAFDALTELKVLRLHSNSLQHVPPRWFKNINKLQELDLSQNFLAKEIGDAKFLHFLPSLIQLDLSFNFELQVYRASMNLSQAFSSLKSLKILRIRGYVFKELKSFNLSPLHNLQNLEVLDLGTNFIKIANLSMFKQFKRLKVIDLSVNKISPSGDSSEVGFCSNARTSVESYEPQVLEQLHYFRYDKYARSCRFKNKEASFMSVNESCYKYGQTLDLSKNSIFFVKSSDFQHLSFLKCLNLSGNLISQTLNGSEFQPLAELRYLDFSNNRLDLLHSTAFEELHKLEVLDISSNSHYFQSEGITHMLNFTKNLKVLQKLMMNDNDISSSTSRTMESESLRTLEFRGNHLDVLWREGDNRYLQLFKNLLKLEELDISKNSLSFLPSGVFDGMPPNLKNLSLAKNGLKSFSWKKLQCLKNLETLDLSHNQLTTVPERLSNCSRSLKNLILKNNQIRSLTKYFLQDAFQLRYLDLSSNKIQMIQKTSFPENVLNNLKMLLLHHNRFLCTCDAVWFVWWVNHTEVTIPYLATDVTCVGPGAHKGQSVISLDLYTCELDLTNLILFSLSISVSLFLMVMMTASHLYFWDVWYIYHFCKAKIKGYQRLISPDCCYDAFIVYDTKDPAVTEWVLAELVAKLEDPREKHFNLCLEERDWLPGQPVLENLSQSIQLSKKTVFVMTDKYAKTENFKIAFYLSHQRLMDEKVDVIILIFLEKPFQKSKFLQLRKRLCGSSVLEWPTNPQAHPYFWQCLKNALATDNHVAYSQVFKETV
notes: human Toll-like receptor 7 (TLR7), residues 27-1049; also called recTLR7; recombinant TLR7
  stoichiometry N: 2
